Experimental data taken from article PMC4324353 (Journal of molecular biology, 2014).

Biological target: latrunculin B bound actin (A. castellani actin monomer) (A. castellani)
Test: fluorescence polarisation

Row | Binder | stoichiometry N
1 | SC[gs]D (Spir SC and SD with Linker 3 replaced by five Gly-Ser repeats) (domain or fragment) KKDAHAMILEFIRSRPPLKKAGSGSGSGSGSPREQLMESIRKGKELKQITPPE | 1 actin monomer per construct
2 | SD3C (Spir SD and SC reversed around Linker 3) (domain or fragment) PREQLMESIRKGKELKQISDRQLGPPRMCEPSKKDAHAMILEFIRSRPPLKKA | 1 actin monomer per construct
